Laboratory results taken from PMC7315409 (Science translational medicine, 2020).

Target: T1, recombinant high mobility group box 1 (HMGB1) (human, UniProt P09429 1-215)
T1 sequence (looked up): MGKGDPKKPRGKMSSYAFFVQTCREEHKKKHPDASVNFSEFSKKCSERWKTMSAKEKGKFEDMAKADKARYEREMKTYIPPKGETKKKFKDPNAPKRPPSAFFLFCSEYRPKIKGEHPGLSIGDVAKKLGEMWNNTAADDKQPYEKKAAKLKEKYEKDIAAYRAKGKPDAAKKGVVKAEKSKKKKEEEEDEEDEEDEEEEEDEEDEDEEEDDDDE
Assay: radioligand binding

B1: purified syndecan-1 (natural protein)
chain: QIVAVNVPPEDQDGSGDDSDNFSGSGTGALPDTLSRQTPSTWKDVWLLTATPTAPEPTSSNTETAFTSVLPAGEKPEEGEPVLHVEAEPGFTARDKEKEVTTRPRETVQLPITQRASTVRVTTAQAAVTSHPHGGMQPGLHETSAPTAPGQPDHQPPRVEGGGTSVIKEVVEDGTANQLPAGEGSGEQDFTFETSGENTAVAAVEPGLRNQPPVDEGATGASQSLLDRKEVLG
modifications: heparan sulfate (HS) polysaccharide side chains on the core protein
IC50: 500 to 550 nM
